PMC9811684 (2023)

Key:
Experiment in all cases: multimer staining
[1] = biological target: T1, SARS-CoV-2 spike protein (SPIKE) peptide on HLA-A*23:01 (human)
T1 peptide: QYIKWPWYIW

[2] = biological target: T2, NL63 spike protein peptide on HLA-A*24:02 (human)
T2 peptide: NYIKWPWWVW

[3] = biological target: T3, SARS-CoV-1 spike protein peptide on HLA-A*24:02 (human)
T3 peptide: QYIKWPWYVW

[4] = biological target: T4, HKU1 spike protein peptide on HLA-A*24:02 (human)
T4 peptide: MYVKWPWYVW

[5] = biological target: T5, OC43 spike protein peptide on HLA-A*24:02 (human)
T5 peptide: YYVKWPWYVW

[6] = biological target: T6, SARS-CoV-2 spike protein (SPIKE) peptide on HLA-A*24:02 (human)
T6 peptide: QYIKWPWYIW

[7] = biological target: T7, 229E spike protein peptide on HLA-A*24:02 (human)
T7 peptide: TYIKWPWWVW

Measured: binding result

B1: TCRQYI (TCR)
alpha TRAV20*01 TRAJ32*01 CDR3: CAALNYGGATNKLIF
beta TRBV4-3*01 TRBJ2-7*01 CDR3: CASSPSGGAYEQYF
recognises: all assays above
